Reference: the supplement of paper PMC7877785
± gives the uncertainty stated by the source.

Experiment: self-splicing fitness, log relative to wild type (ln ratio); higher = more splicing; Tetrahymena group I intron in knt gene, E. coli kanamycin selection, DiMSum; sequences stand for … in CUCUCU…GGAGGGAAAAGUUAUCAGGCAUGCACCUGGUAGCUAGUCUUUAAACCAAUAGAUUGCAUCGGUUUAAAAGGCAAGACCGUCAAAUUGCGGGAAAGGGGUCAACAGCCGUUCAGUACCAAGUCUCAGGGGAAACUUUGAGAUGGCCUUGCAAAGGGUAUGGUAAUAAGCUGACGGACAUGGUCCUAACCACGCAGCCAAGUCCUAAGUCAACAGAUCUUCUGUUGAUAUGGAUGCAGUUCACAGACUAAAUGUCGGUCGGGGAAGAUGUAUUCUUCUCAUAAGAUAUAGUCGGACCUCUCCUUAAUGGGAGCUAGCGGAUGAAGUGAUGCAACACUGGAGCCGCUGGGAACUAAUUUGUAUGCGAAAGUAUAUUGAUUAGUUUUGGAGUACUCGUGGUCG
How it was run: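 Library with all eight P1ex-region intron nucleotides randomised, intron inside the knt kanamycin-resistance gene on pET-22b(+), in E. coli BL21(DE3). Cells grew overnight at 37°C or 30°C on LB agar with or without 25 μg/mL kanamycin (plus 100 μg/mL carbenicillin, 50 μM IPTG, 0.2% rhamnose), in six replicate transformations. Pooled colonies were amplicon-sequenced on Illumina HiSeq 2500. DiMSum fitness is the error-weighted combination of wild-type-normalised replicate fold changes, kanamycin versus none.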

Row | Sequence | self-splicing fitness (ln) (30 °C) | self-splicing fitness (ln) (37 °C)
1 | UAUCAGCAAUAUUACGAGAA | -1.22 ± 0.16 | -0.559 ± 0.13
2 | GAACAGCAAUAUUACGCCAU | -3.82 ± 0.2 | -2.14 ± 0.18
3 | UAGGAGCAAUAUUACGUACG | -1.28 ± 0.17 | -0.737 ± 0.3
4 | GAUGAGCAAUAUUACGAUUG | -4.96 ± 0.45 | -2.67 ± 0.22
5 | ACGAAGCAAUAUUACGGGGG | -2.58 ± 0.15 | -2.27 ± 0.25
6 | CGACAGCAAUAUUACGCUUG | -1.8 ± 0.098 | -1.22 ± 0.12
7 | AUUAAGCAAUAUUACGCAAA | -1.78 ± 0.23 | -1.32 ± 0.18
8 | CGAGAGCAAUAUUACGACUC | -2.03 ± 0.42 | -0.968 ± 0.39
9 | CGACAGCAAUAUUACGCAGU | -3.75 ± 0.22 | -2.05 ± 0.23
10 | CGAAAGCAAUAUUACGGCAC | -2.6 ± 0.15 | 0.387 ± 0.21
11 | AGCUAGCAAUAUUACGUAAG | -2.91 ± 0.12 | -1.71 ± 0.14
12 | AGUCAGCAAUAUUACGGGAC | -2.45 ± 0.18 | -2.16 ± 0.24
13 | CUACAGCAAUAUUACGGAAA | -4.58 ± 0.46 | -2.9 ± 0.33
14 | CAUGAGCAAUAUUACGGAAC | -3.01 ± 0.33 | -2.65 ± 0.35
15 | AAGUAGCAAUAUUACGAACC | -1.4 ± 0.36 | -1.57 ± 0.25
16 | GAUGAGCAAUAUUACGGUGA | -2.21 ± 0.28 | -1.76 ± 0.27
17 | UCGAAGCAAUAUUACGCGUA | -1.46 ± 0.15 | -1.19 ± 0.13
18 | CCUCAGCAAUAUUACGGCUC | -2.77 ± 0.16 | -2.46 ± 0.29
19 | GCACAGCAAUAUUACGCCCC | -0.949 ± 0.12 | -0.0642 ± 0.15
20 | GAUGAGCAAUAUUACGACGU | -1.09 ± 0.094 | -0.283 ± 0.11
21 | ACUAAGCAAUAUUACGUUUC | -4.35 ± 0.26 | -1.85 ± 0.19

Row | Sequence | self-splicing fitness (ln) (30 °C) | self-splicing fitness (ln) (37 °C)
22 | AUUUAGCAAUAUUACGCGAC | -2.16 ± 0.27 | -2.87 ± 0.47
23 | UGAGAGCAAUAUUACGCGUA | -2.26 ± 0.26 | -2.4 ± 0.31
24 | UUAGAGCAAUAUUACGGCGU | -1.73 ± 0.14 | -1.12 ± 0.22
25 | GUCCAGCAAUAUUACGACUU | -1.65 ± 0.078 | -0.203 ± 0.085
26 | AAAAAGCAAUAUUACGCAUU | -2.5 ± 0.1 | -1.8 ± 0.11
27 | UACUAGCAAUAUUACGUAUA | -2.31 ± 0.29 | -1.19 ± 0.21
28 | UCUCAGCAAUAUUACGAAAC | -2.16 ± 0.26 | -2.29 ± 0.5
29 | CUGUAGCAAUAUUACGUGUC | -2.97 ± 0.27 | -1.29 ± 0.17
30 | AAUCAGCAAUAUUACGAUAU | 0.477 ± 0.082 | 0.538 ± 0.1
31 | CCUUAGCAAUAUUACGAGAG | -2.05 ± 0.11 | -1.42 ± 0.1
32 | CGGUAGCAAUAUUACGUAUC | -2.67 ± 0.15 | -2.83 ± 0.29
33 | GUACAGCAAUAUUACGGUCC | -0.203 ± 0.11 | -0.766 ± 0.13
34 | GGUCAGCAAUAUUACGGUAA | -0.874 ± 0.071 | -0.111 ± 0.069
35 | ACAGAGCAAUAUUACGUGCG | -2.89 ± 0.29 | -1.75 ± 0.28
36 | CAGUAGCAAUAUUACGUGAA | -3.97 ± 0.34 | -2.15 ± 0.22
37 | GCGAAGCAAUAUUACGCUAG | -3.28 ± 0.26 | -0.964 ± 0.32
38 | AAUCAGCAAUAUUACGUUCG | -1.51 ± 0.07 | -0.466 ± 0.089
39 | UGAAAGCAAUAUUACGUGCC | -0.125 ± 0.12 | -0.826 ± 0.15
40 | GGCCAGCAAUAUUACGACCC |  | -1.48 ± 0.44
41 | GUGUAGCAAUAUUACGUCUA | -1.13 ± 0.24 | 0.254 ± 0.23
42 | AACCAGCAAUAUUACGUUCC | -2.94 ± 0.17 | -0.871 ± 0.14
